# Columns and labels:
# [1] = tested on: T-cells; conditions: via administration of Tpo or Eltrombopag; cited from earlier work
# [2] = tested on: primary human T-cells; assay: Eltrombopag and IL-2 on CrGFR sorted (CD110+) primary human T-cells, up to 7 days; format: cell-based; conditions: second donor (FIG. 12)
# Protocol: (§1) FIG. 10—Analysis of Eltrombopag and IL-2 on CrGFR sorted primary human T-cells from Donor 4. Primary human T-cells from donor 4 were transduced with the WT TpoR or variant CrGFR, and enriched for expression by Miltenyi MACS technology selected for and incubated in the presence of IL2 or Eltrombopag. Cells were removed at time points up to 7 days and the number of cells expressing the receptor assessed using PE conjugated anti-CD110 antibodies, DRAQ7 viability dye and a MACSQuant analyser.
# as §1, with “11—Analysis” for “10—Analysis”, “5.” for “4.”, “5” for “4”
# as §1, with “12—Analysis” for “10—Analysis”, “6.” for “4.”, “6” for “4”
# Paramagnetic bead sorts were conducted as per the manufacturers' instructions using either anti-PE microbeads (Miltenyi Biotec or StemCell Technologies), or T-cell isolation beads (17951: StemCell Technologies).
# Next Applicants repeated the experiment but sorted the CrGFR+ cells using CD110+ selection by paramagnetic bead selection using the receptors identified from the first round of selections (FIGS. 10, 11 and 12). Applicants observed enhanced survival of T-cells engrafted with the majority of the CrGFR in all three donors. In particular Applicants saw expansion of WT-TpoR, TpOR.CD40, TpOR.IL2rγ and TpoR.LMP1-cyto cells in the second donor (FIG. 12) above that with media alone.
# [3] = Previous attempts to modify TpoR (surface expression, activity); format: cell-based; conditions: previously validated
# Description: However attempts to modify the receptor were not always straightforward. […] Furthermore, Applicants felt that they could improve the signalling capacity of TpoR-based receptors in T-cells by including signalling components which activate JAK3, a signalling molecule involved in IL-2 signalling but not in TpoR signalling, and therefore more likely to drive IL-2 like signals in engineered cells.
# Applicants therefore aimed to generate fusion receptors wherein additional domains were fused directly to the C-terminus of the TpoR IC domain. Applicants first generated a fusion between TpoR and the IL2rβ signalling domain. […] Applicants therefore took an alternative approach where a hybrid TpoR-IL2rβ signalling domain was created whereby the I2rβ signalling region was fused N- or C-terminal to TpoR signalling domain. Next Applicants generated receptors where the cytoplasmic domain of TIAF1, TLR1, CD150, IL2rγ, CD40, LMP1 and ITAM1 from CD3ζ were fused C-terminal to the TpoR signalling domain. […] Applicants also generated CrGFR consisting of TpoR extracellular and transmembrane domain fused to the cytoplasmic domain of CD28 and CD137 as Applicants felt these would provide a costimulatory growth signal upon Eltrombopag administration, sequences of these constructs are provided below.
molecule,measurement,setting,value
"WT TpoR: Wild type TpoR, SEQ ID NO: 1, 635 amino acids (protein, listed as Homo sapiens, MISC_FEATURE (1)..(491): TpoR Extracellular Domain; MISC_FEATURE (492)..(513): TpoR Transmembrane Domain; MISC_FEATURE (514)..(635): TpoR Cytoplasmic Domain) MPSWALFMVTSCLLLAPQNLAQVSSQDVSLLASDSEPLKCFSRTFEDLTCFWDEEEAAPSGTYQLLYAYPREKPRACPLSSQSMPHFGTRYVCQFPDQEEVRLFFPLHLWVKNVFLNQTRTQRVLFVDSVGLPAPPSIIKAMGGSQPGELQISWEEPAPEISDFLRYELRYGPRDPKNSTGPTVIQLIATETCCPALQRPHSASALDQSPCAQPTMPWQDGPKQTSPSREASALTAEGGSCLISGLQPGNSYWLQLRSEPDGISLGGSWGSWSLPVTVDLPGDAVALGLQCFTLDLKNVTCQWQQQDHASSQGFFYHSRARCCPRDRYPIWENCEEEEKTNPGLQTPQFSRCHFKSRNDSIIHILVEVTTAPGTVHSYLGSPFWIHQAVRLPTPNLHWREISSGHLELEWQHPSSWAAQETCYQLRYTGEGHQDWKVLEPPLGARGGTLELRPRSRYRLQLRARLNGPTYQGPWSSWSDPTRVETATETAWISLVTALHLVLGLSAVLGLLLLRWQFPAHYRRLRHALWPSLPDLHRVLGQYLRDTAALSPPKATVSDTCEEVEPSLLEILPKSSERTPLPLCSSQAQMDYRRLQPSCLGTMPLSVCPPMAESGSCCTTHIANHSYLPLSYWQQP",survival and expansion of engineered T-cells,[1],could permit controlled survival and expansion of T-cells
same,expansion of CrGFR cells above that with media alone,[2],expansion
same,activity in primary human T-cells,[3],can have activity

# — patent publication US20210205365A1, “Chimeric Growth Factor Receptors” (Instil Bio (UK) Ltd., priority 2018, published 2021)
